Key:
Experiment in all cases: cell-based or functional assay
[1] = molecular target: T1, IL-18 receptor (IL-18Rα and IL-18Rβ) (UniProt Q13478 19-541; O95256 20-599, limits assumed)
T1 sequence (looked up) 1: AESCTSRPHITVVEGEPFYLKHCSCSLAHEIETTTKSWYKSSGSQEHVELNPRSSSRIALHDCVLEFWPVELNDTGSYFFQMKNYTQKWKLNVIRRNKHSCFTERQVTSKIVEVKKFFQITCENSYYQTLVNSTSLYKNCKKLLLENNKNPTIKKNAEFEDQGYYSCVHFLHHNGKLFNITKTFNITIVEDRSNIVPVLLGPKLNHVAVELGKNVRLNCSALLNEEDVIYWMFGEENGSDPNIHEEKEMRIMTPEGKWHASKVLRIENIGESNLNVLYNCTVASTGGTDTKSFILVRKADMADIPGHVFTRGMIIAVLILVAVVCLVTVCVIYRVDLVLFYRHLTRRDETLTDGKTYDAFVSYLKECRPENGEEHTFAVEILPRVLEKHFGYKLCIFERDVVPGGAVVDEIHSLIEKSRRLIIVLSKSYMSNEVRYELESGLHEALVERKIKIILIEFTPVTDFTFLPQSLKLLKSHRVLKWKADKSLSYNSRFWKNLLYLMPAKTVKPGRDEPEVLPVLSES
T1 sequence (looked up) 2: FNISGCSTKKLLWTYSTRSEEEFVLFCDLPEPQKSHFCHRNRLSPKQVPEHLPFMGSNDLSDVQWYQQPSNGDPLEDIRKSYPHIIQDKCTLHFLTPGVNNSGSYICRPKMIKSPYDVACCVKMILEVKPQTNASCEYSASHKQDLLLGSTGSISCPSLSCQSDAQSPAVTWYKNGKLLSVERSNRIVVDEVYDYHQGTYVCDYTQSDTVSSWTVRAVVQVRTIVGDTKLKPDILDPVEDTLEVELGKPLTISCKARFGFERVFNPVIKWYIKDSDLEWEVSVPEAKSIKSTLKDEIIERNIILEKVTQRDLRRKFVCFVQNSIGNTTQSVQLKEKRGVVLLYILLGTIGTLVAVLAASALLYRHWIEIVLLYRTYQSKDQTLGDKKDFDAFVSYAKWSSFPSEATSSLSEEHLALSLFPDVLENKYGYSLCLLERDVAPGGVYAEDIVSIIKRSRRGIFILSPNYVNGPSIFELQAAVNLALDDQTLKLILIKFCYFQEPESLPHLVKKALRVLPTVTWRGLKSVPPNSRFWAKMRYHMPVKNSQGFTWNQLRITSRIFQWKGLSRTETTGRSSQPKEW

[2] = molecular target: T2, human IL-18 binding protein (IL-18BP) (human, UniProt O95998 31-194)
T2 sequence (looked up): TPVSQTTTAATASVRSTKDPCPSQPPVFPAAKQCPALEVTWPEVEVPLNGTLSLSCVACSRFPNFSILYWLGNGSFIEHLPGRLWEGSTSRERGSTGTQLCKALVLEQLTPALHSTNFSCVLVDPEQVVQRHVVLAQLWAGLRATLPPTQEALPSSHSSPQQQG

[3] = molecular target: T3, IL-18 receptors on HEK-Blue IL-18 reporter cells (InvivoGen) (UniProt Q13478 19-541; O95256 20-599)
T3 sequence (looked up) 1: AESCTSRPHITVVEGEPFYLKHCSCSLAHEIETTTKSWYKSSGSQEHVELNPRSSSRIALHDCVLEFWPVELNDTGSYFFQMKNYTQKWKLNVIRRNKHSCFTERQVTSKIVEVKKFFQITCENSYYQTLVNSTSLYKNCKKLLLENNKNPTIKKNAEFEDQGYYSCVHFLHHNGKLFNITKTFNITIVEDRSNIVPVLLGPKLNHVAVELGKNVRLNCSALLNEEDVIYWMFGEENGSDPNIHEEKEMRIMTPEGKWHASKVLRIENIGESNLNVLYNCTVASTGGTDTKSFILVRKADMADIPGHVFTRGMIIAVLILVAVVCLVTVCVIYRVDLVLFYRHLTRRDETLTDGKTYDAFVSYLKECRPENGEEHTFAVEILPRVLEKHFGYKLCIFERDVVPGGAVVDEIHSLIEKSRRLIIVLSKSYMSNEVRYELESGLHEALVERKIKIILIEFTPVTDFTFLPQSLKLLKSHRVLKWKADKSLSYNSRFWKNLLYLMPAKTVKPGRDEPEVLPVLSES
T3 sequence (looked up) 2: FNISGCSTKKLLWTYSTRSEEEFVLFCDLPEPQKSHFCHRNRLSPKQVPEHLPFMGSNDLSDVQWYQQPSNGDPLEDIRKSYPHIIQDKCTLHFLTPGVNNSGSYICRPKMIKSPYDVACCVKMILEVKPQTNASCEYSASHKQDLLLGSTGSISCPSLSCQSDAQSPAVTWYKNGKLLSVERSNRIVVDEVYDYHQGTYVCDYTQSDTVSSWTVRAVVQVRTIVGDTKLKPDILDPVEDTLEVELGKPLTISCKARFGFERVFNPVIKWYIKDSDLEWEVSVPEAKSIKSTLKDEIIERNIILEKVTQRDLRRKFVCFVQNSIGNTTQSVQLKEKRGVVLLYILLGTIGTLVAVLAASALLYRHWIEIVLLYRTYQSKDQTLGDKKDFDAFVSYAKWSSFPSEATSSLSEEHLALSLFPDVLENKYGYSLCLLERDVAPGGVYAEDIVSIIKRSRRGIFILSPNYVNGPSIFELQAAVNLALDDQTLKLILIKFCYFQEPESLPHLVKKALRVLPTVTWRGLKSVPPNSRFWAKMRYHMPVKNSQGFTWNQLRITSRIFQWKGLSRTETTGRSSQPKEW

Row | Binder | EC50 (pM), PBMC IFN gamma assay, average [1] | EC50 (pM), PBMC IFN gamma assay, run 1 [1] | EC50 (pM), PBMC IFN gamma assay, run 2 [1] | EC50 (pM), PBMC IFN gamma assay, run 3 [1] | PBMC IFN gamma EC50 relative to WT-IL18, average [1] | PBMC IFN gamma EC50 relative to WT-IL18, run 1 [1] | PBMC IFN gamma EC50 relative to WT-IL18, run 2 [1] | PBMC IFN gamma EC50 relative to WT-IL18, run 3 [1] | Fold Change (BP/NO BP), 50 nM BP [2] | Fold Change (BP/NO BP), 300 nM BP [2] | HEK-Blue EC50 pM, +50 nM BP [2] | HEK-blue EC50 (pM) + 300 nM BP [2] | HEK-Blue EC50 pM, NO BP (50 nM BP run) [3] | HEK-Blue EC50 pM, NO BP (300 nM BP run) [3]
1 | hIL18 (G3V, E6K, K53A, M60K)- KiH (Fc fusion) YFVKLKSKLSVIRNLNDQVLFIDQGNRPLFEDMTDSDMRDNAPRTIFIISMYADSQPRGKAVTISVKSEKISTLSSENKIISFKEMNPPDNIKDTKSDIIFFQRSVPGHDNKMQFESSSYEGYFLASEKERDLFKLILKKEDELGDRSIMFTVQNED | 5.46 pM | 8.83 pM | 3.21 pM | 4.33 pM | 0.03 | 0.04 | 0.03 | 0.03 | – | – | – | – | – | –
2 | IL-18 variant M60K, D157E (ligand) YFGKLESKLSVIRNLNDQVLFIDQGNRPLFEDMTDSDMRDNAPRTIFIISMYKDSQPRGKAVTISVKSEKISTLSSENKIISFKEMNPPDNIKDTKSDIIFFQRSVPGHDNKMQFESSSYEGYFLASEKERDLFKLILKKEDELGDRSIMFTVQNEE | – | – | – | – | – | – | – | – | 1.25 fold | 9.04 fold | 1.62 pM | 15.1 pM | 1.3 pM | 1.67 pM
3 | IL-18 variant M60K (ligand) YFGKLESKLSVIRNLNDQVLFIDQGNRPLFEDMTDSDMRDNAPRTIFIISMYKDSQPRGKAVTISVKSEKISTLSSENKIISFKEMNPPDNIKDTKSDIIFFQRSVPGHDNKMQFESSSYEGYFLASEKERDLFKLILKKEDELGDRSIMFTVQNED | – | – | – | – | – | – | – | – | 1.64 fold | 9.67 fold | 4.77 pM | 38.3 pM | 2.9 pM | 3.96 pM
4 | hIL18 (G3T, K53A, M60K) - KiH (Fc fusion) YFTKLESKLSVIRNLNDQVLFIDQGNRPLFEDMTDSDMRDNAPRTIFIISMYADSQPRGKAVTISVKSEKISTLSSENKIISFKEMNPPDNIKDTKSDIIFFQRSVPGHDNKMQFESSSYEGYFLASEKERDLFKLILKKEDELGDRSIMFTVQNED | 195 pM | 209 pM | 214 pM | 162 pM | 1.3 | 0.87 | 2.04 | 1 | – | – | – | – | – | –
5 | hIL18 (G3V, K53S, M60K) - KiH (Fc fusion) YFVKLESKLSVIRNLNDQVLFIDQGNRPLFEDMTDSDMRDNAPRTIFIISMYSDSQPRGKAVTISVKSEKISTLSSENKIISFKEMNPPDNIKDTKSDIIFFQRSVPGHDNKMQFESSSYEGYFLASEKERDLFKLILKKEDELGDRSIMFTVQNED | 576 pM | 589 pM | 535 pM | 603 pM | 3.75 | 2.45 | 5.08 | 3.73 | – | – | – | – | – | –
6 | hIL18 (G3T, E6K, K53S, M60K) - KiH (Fc fusion) YFTKLKSKLSVIRNLNDQVLFIDQGNRPLFEDMTDSDMRDNAPRTIFIISMYSDSQPRGKAVTISVKSEKISTLSSENKIISFKEMNPPDNIKDTKSDIIFFQRSVPGHDNKMQFESSSYEGYFLASEKERDLFKLILKKEDELGDRSIMFTVQNED | 84.4 pM | 90.3 pM | 121 pM | 41.6 pM | 0.6 | 0.37 | 1.15 | 0.26 | – | – | – | – | – | –
7 | hIL18 (G3T, E6K, K53A, M60K) - KiH (Fc fusion) YFTKLKSKLSVIRNLNDQVLFIDQGNRPLFEDMTDSDMRDNAPRTIFIISMYADSQPRGKAVTISVKSEKISTLSSENKIISFKEMNPPDNIKDTKSDIIFFQRSVPGHDNKMQFESSSYEGYFLASEKERDLFKLILKKEDELGDRSIMFTVQNED | 16 pM | 13.3 pM | 14 pM | 20.7 pM | 0.11 | 0.06 | 0.13 | 0.13 | – | – | – | – | – | –
8 | hIL18 (G3V, K53A, M60K) - KiH (Fc fusion) YFVKLESKLSVIRNLNDQVLFIDQGNRPLFEDMTDSDMRDNAPRTIFIISMYADSQPRGKAVTISVKSEKISTLSSENKIISFKEMNPPDNIKDTKSDIIFFQRSVPGHDNKMQFESSSYEGYFLASEKERDLFKLILKKEDELGDRSIMFTVQNED | 60.6 pM | 47.3 pM | 75 pM | 59.4 pM | 0.43 | 0.2 | 0.71 | 0.37 | – | – | – | – | – | –
9 | hIL18 (G3T, K53S, M60K) - KiH (Fc fusion) YFTKLESKLSVIRNLNDQVLFIDQGNRPLFEDMTDSDMRDNAPRTIFIISMYSDSQPRGKAVTISVKSEKISTLSSENKIISFKEMNPPDNIKDTKSDIIFFQRSVPGHDNKMQFESSSYEGYFLASEKERDLFKLILKKEDELGDRSIMFTVQNED | 906 pM | 810 pM | 1120 pM | 784 pM | 6.3 | 3.36 | 10.7 | 4.85 | – | – | – | – | – | –
10 | hIL18 (G3V, E6K, K53S, M60K) - KiH (Fc fusion) YFVKLKSKLSVIRNLNDQVLFIDQGNRPLFEDMTDSDMRDNAPRTIFIISMYSDSQPRGKAVTISVKSEKISTLSSENKIISFKEMNPPDNIKDTKSDIIFFQRSVPGHDNKMQFESSSYEGYFLASEKERDLFKLILKKEDELGDRSIMFTVQNED | 16.8 pM | 17.8 pM | 21.6 pM | 10.9 pM | 0.12 | 0.07 | 0.21 | 0.07 | – | – | – | – | – | –

Source: patent US20240182536A1 (MURAL ONCOLOGY, published 2024)
